{"source": "patent US20050032696A1", "about": "(published 2005)", "proteins": {"B1": {"name": "ΔhMusTRD1α1 (truncated human MusTRD1α1, amino acids 1-458) (other)", "chain": "MALLGKRCDVPTNGCGPDRWNSAFTRKDEIITSLVSALDSMCSALSKLNAEVACVAVHDESAFVVGTEKGRMFLNARKELQSDFLRFCRGPPWKDPEAEHPKKVQRGEGGGRSLPRSSLEHGSDVYLLRKMVEEVFDVLYSEALGRASVVPLPYERLLREPGLLAVQGLPEGLAFRRPAEYDPKALMAILEHSHRIRFKLKRPLEDGGRDSKALVELNGVSLIPKGSRDCGLHGQAPKVPPQDLPPTATSSSMASFLYSTALPNHAIRELKQEAPSCPLAPSDLGLSRPMPEPKATGAQDFSDCCGQKPTGPGGPLIQNVHASKRILFSIVHDKSEKWDAFIKETEDINTLRECVQILFNSRYAEALGLDHMVPVPYRKIACDPEAVEIVGIPDKIPFKRPCTYGVPKLKRILEERHSIHFIIKRMFDERIFTGNKFTKDTTKLEPASPPEDTSAEVS", "notes": "the fusion parts are not written into the chain; In the COS-7 Western blot it was expressed from pCI-neo; also called ΔMusTRD; hMusTRD1α1458aa"}}, "target": "the molecule itself", "test": "yeast two-hybrid mating assay, β-galactosidase reporter", "description": "The dual reporter YM4271 yeast strains containing the USE-B1 and USE-B1b tandem repeats have been described previously (O'Mahoney et al. 1998). A two-hybrid mating assay was used to examine the transactivation and dimerisation functions of hMusTRD1α1. The yeast reporter strain Y190 (CLONTECH) was transformed with 1 μg of pAS2-1, pAS2-1:hMusTRD1α1, or pAS2-1:ΔhMusTRD1α1 using an alkali cation method (BIO 101, Inc., La Jolla, Calif.) and mated with Y187 cells carrying either pACTII, pGAD10:hMusTRD1α1 or, pACTII:ΔhMusTRD1α1. Transformants were selected on complete synthetic media plates lacking tryptophan and leucine (BIO 101). Diploid cells were grown to saturation and used to inoculate test cultures (OD₆₀₀=0.1) that were grown for a further 24 h at 30° C. Cells were harvested in 100 μl Breaking Buffer (100 mM Tris-HCl pH 8, 20% glycerol, 5 mM PMSF, 2 mM DTT) and lysed by vortexing with glass beads. Protein concentration was determined by the Bradford method (Bio-Rad Laboratories, Sydney, NSW). Protein extracts (20 μg) were assayed for β-galactosidase activity with a chemiluminescence detection kit (CLONTECH) and a Turner Designs 20/20 luminometer (Sunnyvale, Calif.)."}
{"protein": "B1", "values": [{"measurement": "binding result", "result": "binds"}]}
